Results on one molecule are retold here after patent US20230391828A1, “REGULATORS OF CELL DIVISION” (TECHNISCHE UNIVERSITÄT DRESDEN, priority 2020, published 2023).

Bridge positions count the residues as written; N and C are the ends. Square brackets hold non-standard residues; d marks the D form. R8 = C=CCCCCCC[C@@](C)(N)C(=O)O; S5 = C=CCCC[C@](C)(N)C(=O)O

Assay [1] addresses recombinant human APC/C (Strep-tagged APC4), expressed in SF9 cells (human) (UniProt Q9NYG5). Description: cell-based or functional assay.
Assay [2] shares this target. Description: inhibitory constant calculated with a model for non-competitive inhibition (Prism 6.0) from the in vitro APC/C ubiquitination assay (UBE2C, securin titration, with or without 3 µM G3-6).

Chain of recombinant human APC/C (Strep-tagged APC4), expressed in SF9 cells (human) (Q9NYG5 whole entry, chain 1 of 2): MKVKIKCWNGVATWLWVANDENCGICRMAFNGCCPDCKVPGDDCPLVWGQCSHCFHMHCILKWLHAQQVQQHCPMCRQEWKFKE
Chain of recombinant human APC/C (Strep-tagged APC4), expressed in SF9 cells (human) (Q9UJX5 whole entry, chain 2 of 2, further chain): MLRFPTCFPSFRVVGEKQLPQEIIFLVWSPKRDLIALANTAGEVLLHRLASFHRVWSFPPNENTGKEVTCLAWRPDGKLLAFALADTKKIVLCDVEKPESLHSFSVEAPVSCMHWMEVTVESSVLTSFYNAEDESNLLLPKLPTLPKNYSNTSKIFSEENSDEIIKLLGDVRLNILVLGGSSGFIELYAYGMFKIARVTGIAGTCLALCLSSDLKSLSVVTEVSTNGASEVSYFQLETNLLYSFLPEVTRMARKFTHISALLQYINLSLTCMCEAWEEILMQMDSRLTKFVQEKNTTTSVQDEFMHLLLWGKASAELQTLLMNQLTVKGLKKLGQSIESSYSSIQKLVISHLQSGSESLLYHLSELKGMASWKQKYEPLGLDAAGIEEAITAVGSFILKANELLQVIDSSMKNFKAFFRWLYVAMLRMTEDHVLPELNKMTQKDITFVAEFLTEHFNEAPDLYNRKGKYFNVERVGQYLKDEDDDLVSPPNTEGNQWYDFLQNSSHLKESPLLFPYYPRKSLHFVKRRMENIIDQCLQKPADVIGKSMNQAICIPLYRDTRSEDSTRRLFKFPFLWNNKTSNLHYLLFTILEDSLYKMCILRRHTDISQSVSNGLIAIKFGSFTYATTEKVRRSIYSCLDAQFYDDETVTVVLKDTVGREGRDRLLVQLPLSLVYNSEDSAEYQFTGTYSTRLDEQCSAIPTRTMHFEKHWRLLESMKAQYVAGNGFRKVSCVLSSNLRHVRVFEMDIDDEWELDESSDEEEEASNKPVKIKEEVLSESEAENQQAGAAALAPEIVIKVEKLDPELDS

B1: G3-6, Ac-cyclo(4,11)-EWWZIKEIQRXRRA-NH2 (peptide)
peptide: Ac-EWW[R8]IKEIQR[S5]RRA-NH2
modifications: staple 4-11
SMILES: CC[C@H](C)[C@@H]1NC(=O)[C@H](CCC(=O)O)NC(=O)[C@H](CCCCN)NC(=O)[C@H]([C@@H](C)CC)NC(=O)[C@](C)(NC(=O)[C@H](Cc2c[nH]c3ccccc23)NC(=O)[C@H](Cc2c[nH]c3ccccc23)NC(=O)[C@H](CCC(=O)O)NC(C)=O)CCCCCCC=CCCC[C@@](C)(C(=O)N[C@@H](CCCNC(=N)N)C(=O)N[C@@H](CCCNC(=N)N)C(=O)N[C@@H](C)C(N)=O)NC(=O)[C@H](CCCNC(=N)N)NC(=O)[C@H](CCC(N)=O)NC1=O
B1: the IC50, in vitro APC/C ubiquitination assay (UBE2C, securin, methylated ubiquitin, 0.01-100 µM G3-6, 10 min) in assay [1] turned out to be 1.96 µM. Besides, in assay [2], the Ki is 5 µM.
